For this test, the target named is recombinant prefusion F protein of RSV (rpF5), ectodomain fused with a T4 fibritin foldon trimerization domain (respiratory syncytial virus, subgroup A2 | bacteriophage T4) (UniProt P03420). Put plainly: SDS-PAGE under reducing and non-reducing conditions; 10% gel, Coomassie blue staining; band of approximately 195 kDa under non-reducing and approximately 65 kDa under reducing conditions.

The source of these data is article PMC12737591.

One may read the stoichiometry N as a count of units in the complex or per binding partner. For “recombinant prefusion F protein of RSV (rpF5), ectodomain fused with a T4 fibritin foldon trimerization domain (from UniProt P03420 26-513) (domain or fragment)”, the stoichiometry N amounted to 3.
